Source: article PMC4867592, “Targeting multiple response regulators of Mycobacterium tuberculosis augments the host immune response to infection” (Scientific Reports, 2016)
Where a chain is given by its changes, count along the chain named.

What was measured:
Assay in all cases: EMSA
[1] = molecular target: T1, RegX3 K204A K204A (UniProt P9WGL9)
T1 sequence: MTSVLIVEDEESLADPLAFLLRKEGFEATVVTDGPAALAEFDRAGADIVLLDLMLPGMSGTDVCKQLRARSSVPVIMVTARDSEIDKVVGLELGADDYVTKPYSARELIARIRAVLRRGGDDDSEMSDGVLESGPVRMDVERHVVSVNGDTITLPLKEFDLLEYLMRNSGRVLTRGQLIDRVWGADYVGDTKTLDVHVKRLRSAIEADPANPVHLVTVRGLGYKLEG

[2] = molecular target: T2, RegX3 L201A L201A (UniProt P9WGL9)
T2 sequence: T1 sequence with L201A, A204K

[3] = molecular target: T3, RegX3 R202A R202A (UniProt P9WGL9)
T3 sequence: T1 sequence with R202A, A204K

## ACCGGCTTGGGACCGGCACCGCGGTACTGTGTGCGTTCGGCACCGCGCTGCACCCGCGGTTCGGGCCGGATTCGTCCGCGCGGCACCGCCGTTCGGGCGC (double strand) [ppK1 promoter fragment]
[1]
  binding: no binding
[2]
  binding: no binding
[3]
  binding: binds
